Assay results taken from article PMC5668257.

Molecular target: EB1 (dog (endogenous in MDCK))
Assay: FRET or BRET; immuno-FRET by acceptor photobleaching at the centrosome area of fixed mitotic MDCK cells; primary antibodies with secondary antibodies labelled with Alexa 555 (donor) and Cy5 or Alexa 633 (acceptor), 1 donor : 2 acceptor

FRET efficiency (donor AKAP350, acceptor EB1): 11%
FRET efficiency (donor EB1, acceptor AKAP350): 5%
Substance: AKAP350 (natural protein)
